Assay results: publication PMC3856478 (2013)

Target: T1, Colicin E9 OBS1 peptide 2-18 (Escherichia coli, UniProt P09883)
T1 chain: SGGDGRGHNTGAHSTSG
Assay: ITC

B1: OmpF (protein)
chain: AEIYNKDGNKVDLYGKAVGLHYFSKGNGENSYGGNGDMTYARLGFKGETQINSDLTGYGQWEYNFQGNNSEGADAQTGNKTRLAFAGLKYADVGSFDYGRNYGVVYDALGYTDMLPEFGGDTAYSDDFFVGRVGGVATYRNSNFFGLVDGLNFAVQYLGKNERDTARRSNGDGVGGSISYEYEGFGIVGAYGAADRTNLQEAQPLGNGKKAEQWATGLKYDANNIYLAANYGETRNATPITNKFTNTSGFANKTQDVLLVAQYQFDFGLRPSIAYTKSKAKDVEGIGDVDLVNYFEVGATYYFNKNMSTYVDYIINQIDSDNKLGVGSDDTVAVGIVYQF
  Kd: ~1000 nM
